# US20220332804A1 (CSL INNOVATION, published 2022)
# Where a chain is given by its changes, count along the chain named.
# B1: RF16-242 (antibody, human IgG4 S228P, lambda, V domains shown)
# VH: EVQLLQSGAEVKKPGESLKISCKGSGYSFTSYWIGWVRQMPGKGLEWMGIIYPGDSDTRYSPSFQGQVTISADKSISTAYLQWSSLKASDTAMYYCARRGHYGDYFDYWGQGTLVTVSS
# VL: SYELTQPPSVSVSPGQTARITCSGDALPKKYAYWYHQKSGQAPVLVIYEDRRRPSEIPERFSGSSSGTMATLTITGAQVEDEGVYFCYSRDRAGNQRVFGGGTQLTVLG
# notes: pH-dependent anti-C2 antibody from a phage display library
# How the values were obtained:
# Test in all cases: SPR, KD relative to WT C2;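 further: biacore SPR at 37 °C, anti-C2 mAbs captured on anti-human IgG chips with alanine or serine point mutants of C2 as analyte, KD from 1:1 fit compared with wild-type C2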
# human C2 D441A = biological target: T1, human C2 D441A (human, UniProt P06681 21-752)
# T1 sequence: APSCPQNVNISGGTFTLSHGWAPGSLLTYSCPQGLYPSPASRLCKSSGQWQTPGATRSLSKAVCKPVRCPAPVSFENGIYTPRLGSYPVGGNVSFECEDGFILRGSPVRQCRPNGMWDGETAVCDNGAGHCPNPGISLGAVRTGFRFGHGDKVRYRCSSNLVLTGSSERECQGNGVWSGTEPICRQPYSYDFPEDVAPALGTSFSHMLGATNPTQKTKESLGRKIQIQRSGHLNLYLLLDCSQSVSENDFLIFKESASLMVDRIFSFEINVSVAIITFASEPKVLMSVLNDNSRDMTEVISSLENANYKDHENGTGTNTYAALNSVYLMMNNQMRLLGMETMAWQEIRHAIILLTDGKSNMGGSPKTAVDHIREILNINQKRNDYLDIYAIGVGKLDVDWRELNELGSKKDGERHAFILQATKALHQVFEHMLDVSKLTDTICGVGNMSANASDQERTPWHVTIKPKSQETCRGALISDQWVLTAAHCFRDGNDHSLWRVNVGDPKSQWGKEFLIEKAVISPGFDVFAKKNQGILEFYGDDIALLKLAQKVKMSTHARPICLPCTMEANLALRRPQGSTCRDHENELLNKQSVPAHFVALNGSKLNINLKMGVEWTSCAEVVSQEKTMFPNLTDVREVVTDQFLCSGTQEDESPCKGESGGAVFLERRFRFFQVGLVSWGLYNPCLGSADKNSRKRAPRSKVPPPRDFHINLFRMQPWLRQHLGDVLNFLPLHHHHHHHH
# Method: (§1) Surface plasmon resonance (SPR, Biacore) was used for all binding affinity analyses. In brief, goat anti-human IgG was directly immobilised onto the carboxymethyl dextran surface of CM5 sensorchips to approximately 12,000 RU using standard NHS/EDC chemistry at pH 5. The immobilised antibody surface was pre-conditioned with ten injections of polyclonal human IgG (Privigen 60 s) prepared at 1 μg/mL. Ligands (anti-C2 mAbs) were captured at the beginning of each cycle as described below. An adjacent spot or flow cell in which only Polyclonal IgG was capture was used as a reference surface. The goat anti-human IgG Fc antibody surface was regenerate in 100 mM H3PO4, injected for 45 seconds at the end of each cycle. Experiments were performed at 37° C. and the flow rate of each experiment was kept constant at 30 μL/min.
# (§2) Sensogram data was double-referenced against a reference anti-IgG surface (i.e. minus anti-C2 mAb) and blank buffer injections obtained within each experiment. The binding data was fit to 1:1 (kinetic or steady-state) model using local Rmax and null refraction index (RI=0) when appropriate. Buffers and solutions were filtered (0.22 μm) prior to use.
# human C2 H446A = biological target: T2, human C2 H446A (human, UniProt P06681 21-752)
# T2 sequence: T1 sequence with A421D, H426A
# Method: as §1, §2
# human C2 S278A = biological target: T3, human C2 S278A (human, UniProt P06681 21-752)
# T3 sequence: T1 sequence with S258A, A421D
# Method: as §1, §2
# human C2 I320A = biological target: T4, human C2 I320A (human, UniProt P06681 21-752)
# T4 sequence: T1 sequence with I300A, A421D
# Method: as §1, §2
binder,measurement,setting,value
B1,Fold diff,human C2 D441A,16 fold
same,Fold diff,human C2 H446A,2 fold
same,Fold diff,human C2 S278A,1 fold
same,Fold diff,human C2 I320A,10 fold
